Measurements taken from the nanobody polyreactivity screen of Harvey et al. (2022).

Assay: yeast display, Sf9 membrane polyspecificity reagent, FACS + sequencing; frameworks hold sequencing errors
Outline: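 In a synthetic yeast display library (Saccharomyces cerevisiae BJ5465), nanobody expression was induced with galactose for 36–48 hours. FACS gates were set low and high (top ~1%) using anti-HA fluorescence for expression and streptavidin fluorescence for binding of the Sf9 membrane reagent. Each polyreactivity label is drawn from the gate of origin.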

Sequence	polyreactivity (PSR sort gate)
QVQLVESGGGLVQAGGSLRLSCAASGRIIRKNTMGWYRQAPGKERELVAAIRWSTTSTYYADSVKGRFTISRDNAKNTVYLQMHSLKPEDTAVYYCAARRRDSYGNIYDYWGQGTQVTVSS	high polyreactivity
QVQLVESGGGLVQAGGSLRLSCAASGIIFPYYAMGWSRQGPGKERELVAGISSSGGITYADSVKGRFTISRDNAKYTVYLQMNSLKPEDTAVYYCNAEYQWLEYDYWGQGTQVTVSS	low polyreactivity
QVQLVESGGGLVQAGGSLRLSCAASGFIFIIYAMGWYRQAPGKERELVAGIRWSGGSTYYADSVKGRFTISRDNAKNTVYLQMNSLKPEDTAVYYCIKDRGSLTLYTYDYWGQGTQVTVSS	low polyreactivity
QVQLVESGGGLVQAGGSLRLSCAATGLTFYLNAMGWYRQAPGKEREFVAAINYSVGSTYYADSVKGRFTISRDNAKNTVYLQMNSLKPEDTAVFYCAADGYLYFKVDNEYWGQGTQVTVSS	low polyreactivity
QVQLVESGGGLVQAGGSLRLSCAASGSTLHEYAMGWSIQAPGKERELVAAISRGGGNTNYADSVKGRFTISRDNAKNTVYLQMNSLKPEDTAVYYCNARHGKIIFYLERYDYWGQGTQVTVSS	low polyreactivity
QVQLVESGGGLVQAGGSLRLSCAASGFTFHNYAMGWYRQAPGKEREFVAAITRNTASTYYADSVKGRFTISRDNAKTTVYLQMISLKPEATAVYYCAATDKKHRTAYDSWGQRTQVTVSS	low polyreactivity
QVQLQESGGGLVQAGGSLRLSCAASGSIFDGFNMGWYRQAPGKERECVAAISYGASTYYADSVKGRFTGSRDNAKNSVYLQMNSLKPEDTAVYYCAVYDELYHVLVYWGRGTQVTVSS	low polyreactivity
QVQLVESGGGLVQAGGSLRLSCAASGRIFGVYVMGWYRQAPGKETELVAAISWSGSHTYYADSVKGRFTISRDNAKNTVYLQMNSLKPEDTAVYYCNADSYPDYTGPGLDWYDYWGQGTQVTVSS	low polyreactivity
QVQLVESGGGLVQAGGSLRLSCAASGRISQHNAMGWYRQAPGKERELVAAISWIGTSTYYADSVKGRFTISRDNAKNTVYLQMNSLKPEDTAVYYGWSTRGPPYIYLNYNYWGQGTQVTVSS	low polyreactivity
QVQLVESGGGLVQAGGSLRLSCAASGSTLTLYAMGWYRQARGKERELVAAIDWTGGSTYYADSVKGRFTISRDNAKNTVYLQMNSLKPEDTAVYYCAAHSFTEGYWYEYWGQGTQVTVSS	high polyreactivity
QVQLVESGGGLVQAGVSLRLSCAASGGTFPKYTMGWYRQAPGKERELVAAITSRGTRTYYADSVKARFTISRDNAKNTVYLQMNSLKTEDTAVYYCAAYFDRHRYDYWGQGTQVTVSS	high polyreactivity
QVQLVESGGGLVQAGGSLRLSCAASGSTFPTNTMGWYRQAPGKERELVAAITGGGSTYYADSVKGRFTISRDNAKNTVYLQMNSLKPEDTAVYYCAADDSWFYYGYGYWGQGTQVTVSS	low polyreactivity
QVQLVQSGGGLVQAGGSLRLSCAASGRNYSDNPMGWYRQAPGKERELVAANSSTGGTYYADSVKGRFTISRDNAKNTVYLQMNSLKPEDTAVYYCAARYRTLTKYYWGQGTQVSVSS	low polyreactivity
QVQLVESGGGLVQAGGSLRLSCAASGRILRGYVMGWSRQAPGKERELVATITGRGGSTYYADSVKGRFTISRDNAKNTVYLQMNSLKPEDTAVYYCNKDGYPYFGRSEYWGQGTQVTVSS	low polyreactivity
QVQLVESGGGLVQAGGSLRLSCAASGSIFSYTMGWYRQAPGKERELVAAITSGGITYYADSVKGRFTISRDNAKNTVYLQMNSLKPEDTAVYYCNKDVGFTRPLYYWGQGTQVTVSS	low polyreactivity
QVQLVESGGGLVQAGGSLRFSCAASGTFVPYAMGWYRQAPGKEMELVARITWRGGSTYYADSVKGRFTISRDNANNTVYLQMNSLKPEETAVYYCATVSDNRYYYWGQGTQVTVSS	low polyreactivity
QVQLVESGGGLVQSGGSLRLSCAASGYIFFFNAMGWYRQAPGKERELVAAITRRGVSTYYADSVKGRCTISRDNAKNTVFLQMNSLKPEDTAVYYCATEHNHLGYYYWGQGTQVTVSS	low polyreactivity
